Data published in the supplement of paper PMC7877785.
± gives the uncertainty stated by the source.

Test: self-splicing fitness, log relative to wild type (ln ratio); higher = more splicing; Tetrahymena group I intron in knt gene, E. coli kanamycin selection, DiMSum; sequences stand for … in CUCUCU…GGAGGGAAAAGUUAUCAGGCAUGCACCUGGUAGCUAGUCUUUAAACCAAUAGAUUGCAUCGGUUUAAAAGGCAAGACCGUCAAAUUGCGGGAAAGGGGUCAACAGCCGUUCAGUACCAAGUCUCAGGGGAAACUUUGAGAUGGCCUUGCAAAGGGUAUGGUAAUAAGCUGACGGACAUGGUCCUAACCACGCAGCCAAGUCCUAAGUCAACAGAUCUUCUGUUGAUAUGGAUGCAGUUCACAGACUAAAUGUCGGUCGGGGAAGAUGUAUUCUUCUCAUAAGAUAUAGUCGGACCUCUCCUUAAUGGGAGCUAGCGGAUGAAGUGAUGCAACACUGGAGCCGCUGGGAACUAAUUUGUAUGCGAAAGUAUAUUGAUUAGUUUUGGAGUACUCGUGGUCG
In short: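 DiMSum derived fitness as the error-weighted combination of fold changes across replicates, kanamycin versus no kanamycin, normalised to wild type. E. coli BL21(DE3) held the library, which randomised all eight P1ex-region intron nucleotides within the knt kanamycin-resistance gene on pET-22b(+). Six replicate transformations grew overnight at 37°C or 30°C on LB agar with or without 25 μg/mL kanamycin, also containing 100 μg/mL carbenicillin, 50 μM IPTG and 0.2% rhamnose, and pooled colonies were amplicon-sequenced on an Illumina HiSeq 2500.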

Row | Sequence | self-splicing fitness (ln) (30 °C) | self-splicing fitness (ln) (37 °C)
1 | CAGAAGCAAUAUUACGACGA | -1.52 ± 0.18 | -0.939 ± 0.17
2 | CAGAAGCAAUAUUACGAGAA |  | -2.3 ± 0.35
3 | CAGAAGCAAUAUUACGAGAC | -1.15 ± 0.3 | -1.38 ± 0.28
4 | CAGAAGCAAUAUUACGAGCG | -0.175 ± 0.068 | 0.538 ± 0.086
5 | CAGAAGCAAUAUUACGAGUC | -3.79 ± 0.48 | -2.16 ± 0.32
6 | CAGAAGCAAUAUUACGAUCA | -2.19 ± 0.14 | -1.84 ± 0.17
7 | CAGAAGCAAUAUUACGCAGG | -2.75 ± 0.15 | -1.73 ± 0.13
8 | CAGAAGCAAUAUUACGCCAA | -3.35 ± 0.38 | 
9 | CAGAAGCAAUAUUACGCGGC | -0.924 ± 0.15 | 
10 | CAGAAGCAAUAUUACGCUAA | -4.46 ± 0.42 | -1.97 ± 0.26
11 | CAGAAGCAAUAUUACGCUGC |  | -2.34 ± 0.49
12 | CAGAAGCAAUAUUACGGACG | -0.743 ± 0.092 | -0.739 ± 0.12
13 | CAGAAGCAAUAUUACGGGAU | -3.18 ± 0.17 | -2.9 ± 0.2
14 | CAGAAGCAAUAUUACGGGGG | -3.09 ± 0.16 | -2.75 ± 0.21
15 | CAGAAGCAAUAUUACGGUGG | -1.26 ± 0.067 | -1.12 ± 0.079
16 | CAGAAGCAAUAUUACGGUUA | -2.25 ± 0.13 | -1.72 ± 0.12
17 | CAGAAGCAAUAUUACGUAGA | -3.54 ± 0.1 | -0.762 ± 0.075
18 | CAGAAGCAAUAUUACGUGUA | -3.81 ± 0.17 | -1.25 ± 0.094
19 | CAGAAGCAAUAUUACGUUCC |  | -1.75 ± 0.47
20 | CAGCAGCAAUAUUACGAACG | -0.451 ± 0.073 | 0.304 ± 0.11
21 | CAGCAGCAAUAUUACGACCA | -1.88 ± 0.19 | -1.22 ± 0.18
22 | CAGCAGCAAUAUUACGAGGA | -2.63 ± 0.2 | -2.42 ± 0.23
23 | CAGCAGCAAUAUUACGCACA | -0.847 ± 0.088 | -0.607 ± 0.093
24 | CAGCAGCAAUAUUACGCAUA | -1.81 ± 0.14 | -1.43 ± 0.17
25 | CAGCAGCAAUAUUACGCCCA | -1.98 ± 0.14 | -0.0298 ± 0.12

Row | Sequence | self-splicing fitness (ln) (30 °C) | self-splicing fitness (ln) (37 °C)
26 | CAGCAGCAAUAUUACGCCCC | -1.87 ± 0.48 | -0.533 ± 0.43
27 | CAGCAGCAAUAUUACGCCUU | -0.761 ± 0.097 | -0.274 ± 0.1
28 | CAGCAGCAAUAUUACGCGAA | -2.55 ± 0.13 | -1.82 ± 0.15
29 | CAGCAGCAAUAUUACGCGUG | -3.2 ± 0.18 | -1.92 ± 0.15
30 | CAGCAGCAAUAUUACGGCCU | -0.922 ± 0.1 | -0.208 ± 0.12
31 | CAGCAGCAAUAUUACGGCUG | -4.48 ± 0.25 | -1.82 ± 0.19
32 | CAGCAGCAAUAUUACGGGCU | -3.74 ± 0.17 | -2.51 ± 0.16
33 | CAGCAGCAAUAUUACGGGGG | -1.63 ± 0.076 | -1.54 ± 0.11
34 | CAGCAGCAAUAUUACGGUGU | -3.61 ± 0.15 | -2.72 ± 0.17
35 | CAGCAGCAAUAUUACGUAAG | -0.365 ± 0.046 | 0.0316 ± 0.067
36 | CAGCAGCAAUAUUACGUACG | -0.121 ± 0.08 | 0.866 ± 0.11
37 | CAGCAGCAAUAUUACGUAGC | -4.02 ± 0.28 | -2.94 ± 0.26
38 | CAGCAGCAAUAUUACGUCCG | 0.0818 ± 0.076 | 0.283 ± 0.086
39 | CAGCAGCAAUAUUACGUCUU | -0.473 ± 0.053 | 0.3 ± 0.07
40 | CAGCAGCAAUAUUACGUGCC | -3.2 ± 0.17 | -2.05 ± 0.21
41 | CAGCAGCAAUAUUACGUUAG | -1.17 ± 0.063 | -0.421 ± 0.078
42 | CAGGAGCAAUAUUACGAACU | -3.14 ± 0.34 | -3.19 ± 0.32
43 | CAGGAGCAAUAUUACGACGU | -3.17 ± 0.16 | -2.13 ± 0.2
44 | CAGGAGCAAUAUUACGAUGU | -4 ± 0.21 | -2.91 ± 0.17
45 | CAGGAGCAAUAUUACGCAAU |  | -1.35 ± 0.27
46 | CAGGAGCAAUAUUACGCACG | -1.71 ± 0.088 | 0.544 ± 0.15
47 | CAGGAGCAAUAUUACGCGCG | -1.45 ± 0.14 | -0.0818 ± 0.14
48 | CAGGAGCAAUAUUACGCUAA | -3.29 ± 0.5 | -1.19 ± 0.41
49 | CAGGAGCAAUAUUACGCUAC | -1.78 ± 0.4 | 
50 | CAGGAGCAAUAUUACGCUAU | -3.39 ± 0.4 | -2.39 ± 0.24

Row | Sequence | self-splicing fitness (ln) (30 °C) | self-splicing fitness (ln) (37 °C)
51 | CAGGAGCAAUAUUACGGAAA | -2.58 ± 0.14 | -2.59 ± 0.23
52 | CAGGAGCAAUAUUACGGAAU | -2.62 ± 0.29 | -2.58 ± 0.39
53 | CAGGAGCAAUAUUACGGAGU | -2.74 ± 0.17 | -2.21 ± 0.25
54 | CAGGAGCAAUAUUACGGAUC | -4.29 ± 0.23 | -3.84 ± 0.34
55 | CAGGAGCAAUAUUACGGAUG | -2.46 ± 0.13 | -2.02 ± 0.17
56 | CAGGAGCAAUAUUACGGCGC | -3.61 ± 0.36 | -3.31 ± 0.16
57 | CAGGAGCAAUAUUACGGGCG | -0.762 ± 0.099 | 0.0758 ± 0.14
58 | CAGGAGCAAUAUUACGGUCA | -2.39 ± 0.3 | -1.56 ± 0.32
59 | CAGGAGCAAUAUUACGUAGU | -3.42 ± 0.17 | -1.55 ± 0.13
60 | CAGGAGCAAUAUUACGUCAA | -3.36 ± 0.2 | -3.44 ± 0.33
61 | CAGGAGCAAUAUUACGUCUC |  | -3.07 ± 0.3
62 | CAGGAGCAAUAUUACGUGUC | -3.59 ± 0.21 | -3.03 ± 0.18
63 | CAGGAGCAAUAUUACGUUCG | -0.032 ± 0.12 | 0.338 ± 0.15
64 | CAGGAGCAAUAUUACGUUGA | -3.22 ± 0.37 | -3.85 ± 0.42
65 | CAGGAGCAAUAUUACGUUUA | -3.29 ± 0.15 | -2.44 ± 0.15
66 | CAGUAGCAAUAUUACGAAGU | -0.925 ± 0.18 | -1.82 ± 0.27
67 | CAGUAGCAAUAUUACGACAU | -3.226 ± 0.023 | -1.83 ± 0.036
68 | CAGUAGCAAUAUUACGAGCA | -2.59 ± 0.3 | -2.3 ± 0.27
69 | CAGUAGCAAUAUUACGAUAU | -2.7 ± 0.2 | -1.88 ± 0.21
70 | CAGUAGCAAUAUUACGAUCU | -1.52 ± 0.15 | -1.15 ± 0.19
71 | CAGUAGCAAUAUUACGAUUG | -1.73 ± 0.083 | -0.648 ± 0.11
72 | CAGUAGCAAUAUUACGCAAU | -1.7 ± 0.39 | 
73 | CAGUAGCAAUAUUACGCACU | -2.19 ± 0.18 | -1.34 ± 0.17
74 | CAGUAGCAAUAUUACGCAUU | -1.49 ± 0.18 | -2.5 ± 0.22
75 | CAGUAGCAAUAUUACGCCUG | -2.42 ± 0.25 | -2.46 ± 0.44

Row | Sequence | self-splicing fitness (ln) (30 °C) | self-splicing fitness (ln) (37 °C)
76 | CAGUAGCAAUAUUACGCGUU | -2.21 ± 0.23 | -1.64 ± 0.23
77 | CAGUAGCAAUAUUACGCUCG | -0.354 ± 0.12 | -0.439 ± 0.17
78 | CAGUAGCAAUAUUACGCUUA | -0.683 ± 0.21 | -0.832 ± 0.19
79 | CAGUAGCAAUAUUACGGAGG | -1.61 ± 0.094 | -0.514 ± 0.12
80 | CAGUAGCAAUAUUACGGAGU | -3.34 ± 0.36 | -2.67 ± 0.26
81 | CAGUAGCAAUAUUACGGCCU | -3.02 ± 0.2 | -1.67 ± 0.17
82 | CAGUAGCAAUAUUACGGCGG | -0.246 ± 0.081 | -0.627 ± 0.091
83 | CAGUAGCAAUAUUACGGCUA | -1.11 ± 0.15 | -1.21 ± 0.16
84 | CAGUAGCAAUAUUACGGCUU | -1.58 ± 0.16 | -1.01 ± 0.14
85 | CAGUAGCAAUAUUACGUAUC | -3.18 ± 0.33 | -2.2 ± 0.25
86 | CAGUAGCAAUAUUACGUAUG | -2.06 ± 0.11 | -1.93 ± 0.16
87 | CAGUAGCAAUAUUACGUGGA | -2.9 ± 0.26 | -3.63 ± 0.42
88 | CAGUAGCAAUAUUACGUGUU | -3.39 ± 0.22 | -2.78 ± 0.19
89 | CAUAAGCAAUAUUACGAAAG | -1.13 ± 0.09 | -0.268 ± 0.12
90 | CAUAAGCAAUAUUACGAACC |  | -1.26 ± 0.35
91 | CAUAAGCAAUAUUACGAAGC | -3.09 ± 0.44 | 
92 | CAUAAGCAAUAUUACGACUG | -0.582 ± 0.072 | -0.476 ± 0.1
93 | CAUAAGCAAUAUUACGAGCU | -4 ± 0.34 | -2.76 ± 0.3
94 | CAUAAGCAAUAUUACGAUCC | -3.25 ± 0.23 | -2.71 ± 0.32
95 | CAUAAGCAAUAUUACGAUGG | 0.0378 ± 0.065 | -0.159 ± 0.093
96 | CAUAAGCAAUAUUACGCAUU | -3.5 ± 0.18 | -1.35 ± 0.17
97 | CAUAAGCAAUAUUACGCCGC | -2.82 ± 0.38 | -1.59 ± 0.47
98 | CAUAAGCAAUAUUACGGACA | -3.09 ± 0.25 | -2.11 ± 0.19
